Binding signal data for four molecules are collected here from article PMC12109719, “Synergistic Signal Amplification via Weak Value Amplification Effect and Sandwich Structure for Highly Sensitive and Specific Real-Time Detection of CA125”.

The subject of series [1] is human IgE (human). The experiment in a line: imaging weak measurement, aptamer-antibody sandwich. As to conditions: 25 ng/mL; CA125 antibody (CA125 gave 665.83 a.u.); 5'-NH2; PBS+ (10 mM PBS, 5 mM MgCl2) as reference channel; aptamer 2 uM immobilized on polydopamine-coated prism, 2% blocking solution; readout at 55 min; pH and ….
In series [2] the test system is human IgG (human). Described as above. As to conditions: 25 ng/mL; CA125 antibody (CA125 gave 665.83 a.u.); 5'-NH2; PBS+ (10 mM PBS, 5 mM MgCl2) as reference channel; aptamer 2 uM immobilized on polydopamine-coated prism, 2% blocking solution; readout at 55 min; pH and ….
For series [3], the target named is CA125 (carbohydrate antigen 125) (UniProt Q8WXI7 1-14451). The experiment in a line: imaging weak measurement, aptamer-antibody sandwich; CA125 50 U/mL; CA125 antibody; PBS+ (10 mM PBS, 5 mM MgCl2) as reference channel; aptamer 2 uM immobilized on polydopamine-coated prism, 2% blocking solution; readout at 55 min; pH and temperature not stated. As to conditions: protein: commercial.

Turning to “CTCACTACTATAGGGATAGGGAGACAAGAATAAACGCTCAA [CA125-1 aptamer]”, the binding signal in series [1] and in series [2] was < 35 a.u throughout.
Consider TATCAATTACTTACCCTAGTGGTGTGATGTCGTATGGATG (ssDNA, 5'-NH2-C6) [CA125-3 aptamer], for which the binding signal in series [3] worked out at 647 a.u.
For the molecule CTCACTACTATAGGGATAGGGAGACAAGAATAAACGCTCAA (ssDNA, 5'-NH2) [CA125-1 aptamer], in series [3], the binding signal is 735 a.u.
TTATCGTACGACAGTCATCCTACAC (ssDNA, 5'-NH2-C6) [CA125-2 aptamer]: the binding signal in series [3] came out at 695 a.u.
